We go through one molecule from US7989587B2, “SSX-2 peptides presented by HLA class II molecules” (Ludwig Institute for Cancer Research Ltd., priority 1999, dated 2011).

Common to all, as to format: cell-based, human
Experiment [1] concerns CD4^+ T-cells. Nature of the experiment: IFN-γ ELISPOT assay of peptide-primed CD4+ T-cells. The settings on record: T-cells prestimulated with p45-59; autologous and allogeneic DC. How it is done:
PBMC from patients were isolated by Ficoll-Paque™ PLUS separation (Amersham Pharmacia Biotech AB, Uppsala, Sweden). For in-vitro priming, 1×10^7 and 2×10^6 unseparated PBMC, respectively, were suspended in 500 μl serum-free medium (X-Vivo 15 (Biowhittaker Europe s.p.r.l., Verviers, Belgium) supplemented with 2 mM L-glutamine (Gibco) and 1% penicillin/streptomycin (Gibco). For pulsing, the pool of the 3 SSX2-derived peptides (each at a concentration of 2 μg/ml) was added to the suspension of 1×10^7 cells, while the suspension of 2×10^6 PBMC was pulsed with the mix of 7 peptides (each at 2 μg/ml) derived from the pp65 antigen of the human CMV. Pulsing was performed for 90-120 minutes at 37° C. Thereafter the pulsed cells were washed once with serum-free medium and suspended for cultivation in X-Vivo 15 T-cell medium (Biowhittaker) supplemented with 10% human AB serum (Biowhittaker) and 6.7 ng/ml IL-7 (R&D systems). The 1×10^7 SSX2-pulsed PBMC were suspended in 3.75 ml T-cell medium and plated into 5 wells (0.75 ml/well) of a 48-well Nuncclone™ plate (Nunc GmbH & Co KG.). The 2×10^6 pp65-pulsed PBMC were plated into 1 well (0.75 ml). The remaining PBMC from the patients or donors, respectively, were divided into at least 3 aliquots of 1×10^7 PBMC and frozen until used for restimulation and in the T-cell assays. The peptide-pulsed PBMC which served both as APC and as a source for the T-cells to be used in the ELISPOT assay, were cultured at 37° C. One day after the stimulation was started, each well was supplemented with 250 μl X-Vivo 15 medium supplemented with 80 U/ml IL-2 (R&D Systems) resulting in a final concentration of 20 U/ml IL-2. The cells were incubated for 6 days under occasional microscopic control. On day 7 and before each ELISPOT assay, respectively, the percentage of CD4^+ T-cells in the culture well was determined. On day 7, cells were restimulated with autologous PBMC that had been pulsed with the appropriate peptides under the same conditions as described for day 0/1 at a CD4^+/APC ratio of 1:1. On day 14, the first ELISPOT assay was performed. To this end, the cultured cells were harvested from the respective wells and the primed CD4^+ cells were used as effectors in the ELISPOT assay. The remaining cells were restimulated once more using conditions as described before. […] no specific reactivity was shown by day 21, the stimulation was repeated weekly until all CD4^+ cells were consumed.
At least three IFN-γ ELISPOT assays were performed on days 14, 21 and 28, respectively. All tests were run in triplicates in order to determine mean values and standard deviations. Assays were performed in nitrocellulose-lined 96-well plates (MAHA S45 by Millipore, Bedford Mass., USA). The wells were pre-coated overnight with PBS (50 μl/well) containing an anti-IFN-γ capture antibody at the dilution recommended in the supplier's instructions (Mabtech AB, Nacka, Sweden). To block unspecific binding, the wells were then incubated with 10% human AB^+ serum for 1 h at 37° C. For the priming of effector cells, 2.5×10^4 CD4^+ T-cell were harvested, washed once to remove the cytokines, and were tested for specific recognition of the corresponding antigen. To this end, peptide-primed CD4^+ cells were harvested, washed once to remove cytokines, resuspended, and 50 μl of the cell suspension in X-Vivo 15 medium were added to each well. […]

Experiment [2] concerns SSX-2 37-51 specific DR3 restricted CD4+ T cells. The experiment in a line: Recognition of recombinant protein loaded EBV cells, IFN-γ ELISA. The settings on record: FIG. 9C, FIG. 10C. How it is done: For intracellular cytokine secretion detection, T cells were stimulated in the absence or in the presence of peptides at the indicated dose during 4 h as described previously (Ayyoub M, et al., J Clin Invest., 2004; 113 (8): 1225-33, see examples above). One hour after the beginning of the incubation, Brefeldin A ([…], Sigma) was added to inhibit cytokine secretion. After incubation, cells were stained with anti-CD4 mAb (BD Biosciences, San Diego, Calif.) for 20 min at 4° C. and fixed using formaldehyde, permeabilized with saponine (Sigma, 0.1% in PBS 5% FCS), stained with anti IFN-γ mAb (BD Biosciences) and analyzed by flow cytometry. Data analysis was performed using Cell Quest software. IFN-γ secretion was assessed as described (Ayyoub M, et al., J Clin Invest., 2004; 113 (8): 1225-33). T cells (10,000/well) and EBV transformed B cells (EBV) used as antigen-presenting cells (APC, 10,000/well) were incubated in the absence or in the presence of peptides at the indicated dose in 96-well round-bottom plates in […] of medium. In some experiments tumor cells were used as APC. […] After 24 h incubation at 37° C., culture supernants were collected and the content of IFN-g determined by ELISA (BioSource International, Camarillo, Calif., USA). […]
A general note: ELISA stands for enzyme-linked immunosorbent assay.

Experiment [3] relates to T cells. The experiment in a line: BrdU proliferation assay of T cells with peptide or protein loaded autologous dendritic cells. As for the experimental part:
The peptides were then combined with autologous dendritic cells. These were obtained by isolating peripheral blood mononuclear cells (“PBMCs”), from HLA-DR+donors, using Ficoll-Hypaque methods. These PBMCs were then incubated for 1-2 hours at 37° C., on plastic surfaces. Adherent monocytes were then cultured for 5 days in medium that had been supplemented with interleukin-4 (IL-4) and GM-CSF. To elaborate, AIMV medium supplemented with 1000 U/ml of IL-4, and 1000 U/ml of GM-CSF was used. This incubation stimulates differentiation into dendritic cells.
Samples of dendritic cells (8×10^5) were then loaded with 50 μg/ml of […] added peptide. The loading proceeded for 2 hours, at 37° C., in medium supplemented with 1000 U/ml of TNF-α and 10,000 U/ml of IL-1β. Peptide pulsed dendritic cells were then washed twice, in excess peptide free medium. Then, autologous peripheral blood lymphocytes (4×10^7) were combined with 8×10^5 peptide loaded dendritic cells (ratio of 50:1), in medium which contained 5 ng/ml of IL-7 and 20 U/ml of IL-2. Incubation was carried out at 37° C.
Cultures were restimulated weekly with peptide loaded, irradiated PBMCs.
The ability of the peptides to form complexes with HLA-DR molecules and to stimulate CD4^+ cell proliferation was determined by measuring BrdU uptake.
The specificity of the resulting CD4^+ cells was then tested by combing them with autologous dendritic cells that had been loaded with peptide, admixed with full length recombinant SSX-2 protein, or with an unrelated protein.
The results presented in Example 4 led to additional experiments using T cells that had been isolated from two donors using standard protocols. In these experiments, autologous dendritic cells were prepared, as described, and combined with T cells whose proliferation was determined in a BrdU assay. […] The SSX-2 full length molecule provoked just slightly less than 60% proliferation, while the peptide mixture provoked about 85% proliferation.

B1: SSX-2 full length molecule: full length recombinant SSX-2 protein (protein, UniProt Q16385 1-188, looked up)
chain: MNGDDAFARRPTVGAQIPEKIQKAFDDIAKYFSKEEWEKMKASEKIFYVYMKRKYEAMTKLGFKATLPPFMCNKRAEDFQGNDLDNDPNRGNQVERPQMTFGRLQGISPKIMPKKPAEEGNDSEEVPEASGPQNDGKELCPPGKPTTSEKIHERSGPKRGEHAWTHRLRERKQLVIYEEISDPEEDDE
modifications: full-length
notes: full length recombinant SSX-2 protein
For B1, in experiment [1], the “T-cell response to dendritic cells pulsed with whole protein” value is recorded as “induced a significant T-cell response”. Further, in experiment [2], the “processing and presentation of recombinant protein by DR3+ EBV cells, recognition by specific CD4+ T cells” value is on record as “efficiently process”. In addition, the proliferation entry in experiment [3] (first set of experiments, mixture of the 5 peptides of Example 4 compared to equal amount of protein) is reported as “less than 60%”. Also, in experiment [3] (six individual experiments, versus other peptides or TALL), the “T cell proliferation induced by pulsed dendritic cells” value is given as “greater T cell proliferation”.
